Tests used:
[1] = texture analysis profile (firmness, work of adhesion); assay type: physicochemical; conditions: 1% (w/w) polypeptide and 1% (w/w) HEC in water
From the text: FIGS. 20A and 20B show A) firmness values for mixtures of 1% solutions of synthetic cationic polypeptides with 1% hydroxyethyl cellulose (HEC, Natrosol HHX) in water (FIG. 20A); and B) work of adhesion values for mixtures of 1% solutions of copolypeptides with 1% hydroxyethyl cellulose (HEC, Natrosol HHX) in water (FIG. 20B).
Values for 1% (w/w) polypeptide in water. b. Values for 1% polypeptide/1% HEC (w/w) in water. c. Interaction parameter: ΔF=Fmix(poly/HEC)−(Fpoly+FHEC). Where Fmix(poly/HEC)=firmness of 1% polypeptide/1% HEC, Fpoly=firmness of 1% polypeptide solution, and FHEC=firmness of 1% HEC (Natrosol HHX) in water. Similar treatment of data was performed for the work of adhesion interaction parameter.
A texture analysis profile has been used to determine the effects of block copolypeptide composition and hydrophobic enantiopurity on the mechanical properties of the block copolypeptide/HEC mixtures (FIGS. 20A and 20B). […] This corresponds to an interaction parameter value of 14.45 mN and an overall increase of over 170% over what would be expected from the additive contributions of the individual components. […] Hydrophobic block length was also shown to be influential.

[2] = system: S. epidermidis, P. aeruginosa (pig clinical isolate); assay: open-wound porcine treatment model; assay type: in vivo; conditions: wounds contaminated, treated after 2 hrs, biopsied 4 hrs after treatment
Experimental: Each wound was contaminated with bacteria (S. epidermidis, P. aeruginosa (pig clinical isolate)). After 2 hrs, wounds were rinsed with saline and treated with 5 mL of test article or water. Test articles: K100(rac-L)20 (SEQ ID NO: 12) at 10, 2, 0.4 mg/mL, 10 mg/mL K100(rac-L)20 (SEQ ID NO: 12) and 30 mg/mL PEG 400 in water, and deionized water as a control. Gauze soaked in test article or water was placed on top of the wounds. Wounds were biopsied at 4 hrs after treatment.
Aqueous compositions that include mixtures of synthetic cationic polypeptides with two different polymers (polyethylene glycol 400 and hydroxyethyl cellulose) were both found to be effective in vivo. As depicted in FIG. 25, K100(rac-L)20 (SEQ ID NO: 12) was effective in an porcine open-wound treatment model alone and in combination with PEG 400. […] The aqueous compositions described herein can be used for any one or more treatments and/or applications, including but not limited to prevention of infections, treatment of infections, treatment for topical anti-infection, treatment for microbial decolonization, wound treatment, surgical site treatment, trauma treatment, burn treatment, treatment of diabetic foot ulcers, eye treatment, treatment of vaginal infections, treatment of urinary tract infections, hand sanitization, for coating prosthetic devices and/or implants, food preservation and solution preservation.

P. aeruginosa biofilms = assay: in vitro P. aeruginosa biofilm assay; assay type: cell-based; conditions: 0.1-20 mg/mL, 24 hour contact time

| Molecule | effect on adhesiveness / work of adhesion of mixing polypeptide with HEC [1] | effect on firmness of mixing polypeptide with HEC [1] | effectiveness in porcine open-wound treatment model [2] | effectiveness against P. aeruginosa biofilms in vitro (P. aeruginosa biofilms) |
| --- | --- | --- | --- | --- |
| K100: lysine homopolypeptide (K100, lysine homopolypeptide) KKKKKKKKKKKKKKKKKKKKKKKKKKKKKKKKKKKKKKKKKKKKKKKKKKKKKKKKKKKKKKKKKKKKKKKKKKKKKKKKKKKKKKKKKKKKKKKKKKKK | failed to enhance | failed to enhance | – | – |
| K100(rac-L)20: synthetic cationic copolypeptide: lysine segment and shorter racemic hydrophobic leucine block (racemic leucine block; K100(rac-L)20; rac-L (101)..(120)) KKKKKKKKKKKKKKKKKKKKKKKKKKKKKKKKKKKKKKKKKKKKKKKKKKKKKKKKKKKKKKKKKKKKKKKKKKKKKKKKKKKKKKKKKKKKKKKKKKKKLLLLLLLLLLLLLLLLLLLL | no effect | no effect | effective | effective |
| K100L20: synthetic cationic copolypeptide: lysine segment and leucine segment (K100L20) KKKKKKKKKKKKKKKKKKKKKKKKKKKKKKKKKKKKKKKKKKKKKKKKKKKKKKKKKKKKKKKKKKKKKKKKKKKKKKKKKKKKKKKKKKKKKKKKKKKKLLLLLLLLLLLLLLLLLLLL | antagonistic | increased firmness | – | – |

Reference: US12016898B2, “Compositions and uses of antimicrobial materials with tissue-compatible properties” (Amicrobe, Inc., priority 2012, dated 2024)
